Test results as given in article PMC9561264, “Direct hOGG1-Myc interactions inhibit hOGG1 catalytic activity and recruit Myc to its promoters under oxidative stress”.

Columns and labels:
Conditions in all cases: protein: recombinant; tags: N-terminal His6 (removed by protease where required); label: 5' AF647 (FP) or Cy3 (EMSA) on bottom strand; blunt
hOGG1 wild type [1] = target: T1, hOGG1 wild type (human, UniProt O15527 1-345); assay: fluorescence polarisation; reducing; FP at 25°C with 5 nM labelled DNA; EMSA room temp 30 min, 15% native PAGE 0.5x TBE 4°C; interaction buffer 20 mM Tris-HCl pH 7.6, 200 mM NaCl (Fig. S12); reducing (5 mM DTT in EMSA) or oxidising (pre-oxidised hOGG1)
T1 sequence (O15527 whole entry): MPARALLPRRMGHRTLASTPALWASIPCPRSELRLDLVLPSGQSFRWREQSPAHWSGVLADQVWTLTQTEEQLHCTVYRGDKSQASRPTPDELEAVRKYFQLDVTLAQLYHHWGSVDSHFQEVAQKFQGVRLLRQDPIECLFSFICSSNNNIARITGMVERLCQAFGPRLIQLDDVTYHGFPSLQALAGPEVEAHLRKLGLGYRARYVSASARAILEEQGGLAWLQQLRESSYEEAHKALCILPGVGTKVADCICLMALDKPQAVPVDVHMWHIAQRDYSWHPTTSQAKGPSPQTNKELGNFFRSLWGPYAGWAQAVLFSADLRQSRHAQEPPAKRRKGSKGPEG

hOGG1 wild type [2] = target: T1, hOGG1 wild type; assay: fluorescence polarisation; oxidising, pre-oxidised hOGG1; FP at 25°C with 5 nM labelled DNA; EMSA room temp 30 min, 15% native PAGE 0.5x TBE 4°C; interaction buffer 20 mM Tris-HCl pH 7.6, 200 mM NaCl (Fig. S12); reducing (5 mM DTT in EMSA) or oxidising (pre-oxidised hOGG1)
hOGG1 wild type [3] = target: T1, hOGG1 wild type; assay: fluorescence polarisation; oxidising; FP at 25°C with 5 nM labelled DNA; EMSA room temp 30 min, 15% native PAGE 0.5x TBE 4°C; interaction buffer 20 mM Tris-HCl pH 7.6, 200 mM NaCl (Fig. S12); reducing (5 mM DTT in EMSA) or oxidising (pre-oxidised hOGG1)

B1: oxoG 48 bp (EMSA/FP) (dsDNA)
DNA 1: GCATGCCTCGAGTCTAGAGGTACCAGATCTGATCCTCTAGAGTCGACC
DNA 2: GGTCGACTCTAGAGGATCAGATCTGGTACCTCTAGACTCGAGGCATGC
modifications: 8-oxoguanine at position 10 of strand 1 (written G)
Kd (hOGG1 wild type [1]): 0.066 ± 0.005 µM | Kd (hOGG1 wild type [2]): 0.14 ± 0.009 µM

B2: undamaged (nsp) 48 bp (dsDNA)
DNA 1: GCATGCCTCGAGTCTAGAGGTACCAGATCTGATCCTCTAGAGTCGACC
DNA 2: GGTCGACTCTAGAGGATCAGATCTGGTACCTCTAGACTCGAGGCATGC
Kd (hOGG1 wild type [1]): 0.252 ± 0.043 µM | Kd (hOGG1 wild type [3]): 0.25 ± 0.018 µM
